Reference: patent publication US20140112930A1 (published 2014)

Experiments:
[1] = target: T1, Dimeric Mouse Ang-2FD conjugated to human IgG1 (mouse (Mus musculus); human); test: SPR, captured Ab, RT
T1 construct: also called Mouse Ang-2FD-hFc
Summary of the method: (§1)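 Antibody captured on amine-coupled goat anti-mouse IgG, anti-human κ or anti-human IgG polyclonal surfaces on a CM5 chip; antigen binding and dissociation followed in real time at room temperature. KD and complex dissociation half-life derived by kinetic analysis.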

[2] = target: T2, Dimeric Human Ang-2FD conjugated to human IgG1 (human); test: SPR, captured Ab, RT
T2 construct: also called Human Ang-2FD-hFc; hAng-2FD-hFc
Summary of the method: as §1

[3] = target: T3, Dimeric Monkey Ang-2FD conjugated to human IgG1 (monkey (Macca fascicularis); human); test: SPR, captured Ab, RT
T3 construct: also called Monkey Ang-2FD-hFc
Summary of the method: as §1

Monomeric hAng-2FD [4] = target: T4, Monomeric hAng-2FD (human, UniProt O15123 282-496); test: SPR, captured Ab, 25°C
T4 construct: also called fibrinogen-like domain of human Ang2; Human Ang-2FD
T4 sequence: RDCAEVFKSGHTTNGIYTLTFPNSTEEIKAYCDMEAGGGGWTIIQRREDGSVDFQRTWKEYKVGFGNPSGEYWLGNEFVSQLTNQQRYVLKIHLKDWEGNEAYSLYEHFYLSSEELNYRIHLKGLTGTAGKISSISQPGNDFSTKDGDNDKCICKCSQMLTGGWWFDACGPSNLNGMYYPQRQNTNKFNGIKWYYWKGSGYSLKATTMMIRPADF
Method: (§2) Each selected antibody or control construct was captured at a flow rate of 40 μL/min for 1 minute on a goat anti-human IgG polyclonal antibody surface created through direct chemical coupling to a BIACORE™ chip to form a captured antibody surface.

[5] = target: T5, wild-type human Ang-2 (hAng-2-WT) (human, UniProt O15123 19-496); test: SPR, captured Ab, 25°C
T5 construct: called full-length wild-type; also called Full-length wild-type human Ang-2
T5 sequence: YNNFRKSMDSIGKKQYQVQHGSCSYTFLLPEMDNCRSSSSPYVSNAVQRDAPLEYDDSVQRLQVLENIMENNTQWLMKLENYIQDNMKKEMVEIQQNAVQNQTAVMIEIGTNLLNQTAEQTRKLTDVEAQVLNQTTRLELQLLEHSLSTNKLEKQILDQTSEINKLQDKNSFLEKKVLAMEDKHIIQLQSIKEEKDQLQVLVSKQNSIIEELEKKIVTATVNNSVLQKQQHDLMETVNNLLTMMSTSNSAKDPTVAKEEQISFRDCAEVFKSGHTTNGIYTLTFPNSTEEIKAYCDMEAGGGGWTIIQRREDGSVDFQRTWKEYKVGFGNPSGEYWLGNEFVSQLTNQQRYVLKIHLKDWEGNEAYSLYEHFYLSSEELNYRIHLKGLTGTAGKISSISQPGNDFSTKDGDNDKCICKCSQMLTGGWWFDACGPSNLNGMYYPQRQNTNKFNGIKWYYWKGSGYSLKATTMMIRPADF
Method: as §2

[6] = target: T6, Full-length wild-type human Ang-1 (hAng-1-WT) (human, UniProt Q15389 20-498, limits assumed); test: SPR, captured Ab, 25°C
T6 construct: also called recombinant human Ang-1 (R&D Systems)
T6 sequence (looked up): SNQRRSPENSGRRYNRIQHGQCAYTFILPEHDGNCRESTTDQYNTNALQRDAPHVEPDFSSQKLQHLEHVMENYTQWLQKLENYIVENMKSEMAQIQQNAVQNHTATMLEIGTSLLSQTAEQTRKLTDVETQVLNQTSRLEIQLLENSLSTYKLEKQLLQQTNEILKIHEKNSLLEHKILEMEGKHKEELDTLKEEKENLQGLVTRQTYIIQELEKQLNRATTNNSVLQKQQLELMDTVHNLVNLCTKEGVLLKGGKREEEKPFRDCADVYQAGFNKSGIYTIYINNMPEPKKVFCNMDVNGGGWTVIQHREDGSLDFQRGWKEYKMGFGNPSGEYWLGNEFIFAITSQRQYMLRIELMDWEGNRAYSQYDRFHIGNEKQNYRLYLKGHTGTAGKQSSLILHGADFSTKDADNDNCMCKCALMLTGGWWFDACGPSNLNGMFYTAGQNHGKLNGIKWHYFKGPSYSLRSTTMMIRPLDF
Method: as §2

[7] = target: T7, human bow-Ang-2 tetrameric construct (hBA2) (human); test: SPR, captured Ab
T7 construct: also called human BA2; hBA2-hIgG1

[8] = target: T8, Dimeric Human Ang-2FD-mFc (human, UniProt O15123 282-496); test: SPR, captured Ab, 25°C
T8 construct: also called hAng-2FD-mFc; hAng2-FD-mFc; not shown: mouse Fc (mFc)
T8 sequence: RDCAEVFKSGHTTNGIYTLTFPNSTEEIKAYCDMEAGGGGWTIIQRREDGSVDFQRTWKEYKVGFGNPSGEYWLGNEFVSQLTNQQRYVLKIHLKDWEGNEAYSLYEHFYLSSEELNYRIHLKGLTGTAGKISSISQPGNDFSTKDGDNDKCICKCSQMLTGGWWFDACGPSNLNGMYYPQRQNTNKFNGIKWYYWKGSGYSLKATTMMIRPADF
Method: (§3) Each selected antibody or control construct was captured at a flow rate of 40 μL/min for 1 minute on a goat anti-human kappa polyclonal antibody surface created through direct chemical coupling to a BIACORE™ chip to form a captured antibody surface.

[9] = target: T1, Dimeric Mouse Ang-2FD conjugated to …; test: SPR, captured Ab, 25°C
Method: as §3

[10] = target: T3, Dimeric Monkey Ang-2FD conjugated to …; test: SPR, captured Ab, 25°C
Method: as §3

Monomeric hAng-2FD [11] = target: T4, Monomeric hAng-2FD; test: SPR, captured Ab
[12] = target: T5, wild-type human Ang-2 (hAng-2-WT); test: SPR, captured Ab
Monomeric hAng-2FD [13] = target: T4, Monomeric hAng-2FD; test: SPR, captured Ab, 37°C
Method: as §2

[14] = target: T5, wild-type human Ang-2 (hAng-2-WT); test: SPR, captured Ab, 37°C
Method: as §2

[15] = target: T6, Full-length wild-type human Ang-1 …; test: SPR, captured Ab, 37°C
Method: as §2

[16] = target: T8, Dimeric Human Ang-2FD-mFc; test: SPR, captured Ab, 37°C
Method: as §3

[17] = target: T1, Dimeric Mouse Ang-2FD conjugated to …; test: SPR, captured Ab, 37°C
Method: as §3

[18] = target: T3, Dimeric Monkey Ang-2FD conjugated to …; test: SPR, captured Ab, 37°C
Method: as §3

hAng-1-WT [19] = target: T9, hAng-1-WT (human, UniProt Q15389 20-498, limits assumed); test: SPR, 1 uM blocker premixed with 10 nM hAng-1-WT, over hTie-2-mFc surface
T9 construct: a tag is not mentioned there; also called full-length wild-type human Ang-1
T9 sequence (looked up): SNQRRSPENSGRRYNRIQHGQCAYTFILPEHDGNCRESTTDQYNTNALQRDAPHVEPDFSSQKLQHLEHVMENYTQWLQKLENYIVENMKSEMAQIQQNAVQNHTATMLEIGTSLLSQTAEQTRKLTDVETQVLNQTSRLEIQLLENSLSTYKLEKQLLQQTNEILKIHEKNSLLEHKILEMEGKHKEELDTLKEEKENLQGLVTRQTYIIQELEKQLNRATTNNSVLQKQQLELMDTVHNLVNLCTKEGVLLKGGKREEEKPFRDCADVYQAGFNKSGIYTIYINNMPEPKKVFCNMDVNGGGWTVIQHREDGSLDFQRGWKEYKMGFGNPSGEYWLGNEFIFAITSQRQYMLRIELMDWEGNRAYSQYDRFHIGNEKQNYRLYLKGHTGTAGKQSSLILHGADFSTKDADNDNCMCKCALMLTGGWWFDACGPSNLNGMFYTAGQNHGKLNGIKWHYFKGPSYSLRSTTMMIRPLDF
Method: (§4) In this experiment, a human Tie-2 full-length extracellular domain construct (hTie-2-mFc-ecto) was amine-coupled on a BIACORE™ chip to create a receptor coated surface. […] The equilibrated solutions were injected over the receptor surfaces at 5 μL/min for 5 minutes at 25° C.

Biotin-hBA2 = target: T10, Biotin-hBA2 (human, biotinylated (sites not given)); test: blocking ELISA, biotin-hBA2 to hTie-2
T10 construct: hBA2 consists of two dimers; also called biotinylated hBA2; human bow-Ang2

hAng-1-WT [20] = target: T9, hAng-1-WT; test: SPR, 1 uM blocker premixed with 10 nM hAng-1-WT, over hTie-2-mFc surface; RU of hAng-1 bound
Method: as §4

Mouse Ang-2FD-hFc = target: T11, Mouse Ang-2FD-hFc (mouse (Mus musculus)); test: blocking ELISA, 16.67 nM antibody, Ang-2FD-hFc to coated hTie-2-mFc
T11 construct: also called dimeric mouse Ang-2FD

Human Ang-2FD-hFc = target: T12, Human Ang-2FD-hFc (human); test: as above
T12 construct: also called dimeric human Ang-2FD; human Ang-2FD protein conjugated to human IgG

Monkey Ang-2FD-hFc = target: T13, Monkey Ang-2FD-hFc (monkey (Macca fascicularis)); test: as above
T13 construct: also called dimeric monkey Ang-2FD
T13 sequence (chain, as listed by the source limits assumed): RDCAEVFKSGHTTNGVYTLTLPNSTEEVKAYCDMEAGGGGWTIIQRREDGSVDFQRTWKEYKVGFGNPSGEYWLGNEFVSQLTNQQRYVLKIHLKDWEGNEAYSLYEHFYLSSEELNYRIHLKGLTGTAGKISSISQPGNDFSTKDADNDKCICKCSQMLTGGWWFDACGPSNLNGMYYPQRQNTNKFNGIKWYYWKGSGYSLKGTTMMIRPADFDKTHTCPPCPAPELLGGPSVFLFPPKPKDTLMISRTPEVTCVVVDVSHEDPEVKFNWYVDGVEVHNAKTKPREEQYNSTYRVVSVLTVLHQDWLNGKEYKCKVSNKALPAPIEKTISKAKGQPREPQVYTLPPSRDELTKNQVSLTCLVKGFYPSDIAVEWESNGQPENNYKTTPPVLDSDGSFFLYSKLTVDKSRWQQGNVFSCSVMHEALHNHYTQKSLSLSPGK

T1 sequence (chain, as listed by the source limits assumed): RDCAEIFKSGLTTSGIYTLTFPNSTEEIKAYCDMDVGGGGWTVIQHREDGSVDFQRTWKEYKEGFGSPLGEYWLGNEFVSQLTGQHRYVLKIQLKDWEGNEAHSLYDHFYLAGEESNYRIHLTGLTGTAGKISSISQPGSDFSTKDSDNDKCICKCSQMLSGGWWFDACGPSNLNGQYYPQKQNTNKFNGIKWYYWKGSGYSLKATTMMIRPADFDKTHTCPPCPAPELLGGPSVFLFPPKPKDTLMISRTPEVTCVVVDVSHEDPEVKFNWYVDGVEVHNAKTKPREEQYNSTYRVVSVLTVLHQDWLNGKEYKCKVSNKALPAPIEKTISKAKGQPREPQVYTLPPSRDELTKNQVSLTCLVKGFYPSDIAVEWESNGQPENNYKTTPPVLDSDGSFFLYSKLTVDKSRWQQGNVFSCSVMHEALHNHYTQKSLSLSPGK
T7 sequence (chain, as listed by the source limits assumed): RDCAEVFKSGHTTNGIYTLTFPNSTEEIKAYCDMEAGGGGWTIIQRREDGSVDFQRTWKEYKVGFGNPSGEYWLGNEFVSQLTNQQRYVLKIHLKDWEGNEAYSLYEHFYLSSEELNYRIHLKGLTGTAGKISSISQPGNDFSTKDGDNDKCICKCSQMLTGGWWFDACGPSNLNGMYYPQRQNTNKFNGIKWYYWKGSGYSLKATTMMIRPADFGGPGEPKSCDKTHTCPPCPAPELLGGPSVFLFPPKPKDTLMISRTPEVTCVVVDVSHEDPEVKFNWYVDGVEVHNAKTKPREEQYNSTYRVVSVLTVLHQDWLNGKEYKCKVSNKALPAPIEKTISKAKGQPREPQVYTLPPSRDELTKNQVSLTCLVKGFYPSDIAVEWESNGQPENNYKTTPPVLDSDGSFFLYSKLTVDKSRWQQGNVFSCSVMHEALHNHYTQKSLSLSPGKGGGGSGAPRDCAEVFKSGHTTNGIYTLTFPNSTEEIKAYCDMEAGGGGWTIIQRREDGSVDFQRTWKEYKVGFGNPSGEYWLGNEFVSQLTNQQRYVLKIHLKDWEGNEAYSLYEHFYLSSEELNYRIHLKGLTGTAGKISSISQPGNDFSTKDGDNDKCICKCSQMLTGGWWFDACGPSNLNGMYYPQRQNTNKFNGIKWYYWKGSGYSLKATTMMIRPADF
T2 sequence (chain, as listed by the source limits assumed): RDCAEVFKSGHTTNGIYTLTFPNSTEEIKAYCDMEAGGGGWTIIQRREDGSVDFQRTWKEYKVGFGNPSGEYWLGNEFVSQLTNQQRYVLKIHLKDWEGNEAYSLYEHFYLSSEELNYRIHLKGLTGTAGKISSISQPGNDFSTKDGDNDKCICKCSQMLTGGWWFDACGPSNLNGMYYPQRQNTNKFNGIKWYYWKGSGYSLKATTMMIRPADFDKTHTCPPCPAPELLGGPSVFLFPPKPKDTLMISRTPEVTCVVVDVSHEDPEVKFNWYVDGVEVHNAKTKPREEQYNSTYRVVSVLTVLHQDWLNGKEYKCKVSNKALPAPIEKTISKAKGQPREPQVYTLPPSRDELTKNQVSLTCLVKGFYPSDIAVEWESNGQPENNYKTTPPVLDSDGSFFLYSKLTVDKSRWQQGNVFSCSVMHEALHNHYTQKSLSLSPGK

B1: H1H744N (antibody, V domains shown)
VH: QVQLVQSGVEVKKPGASVKVSCKTSGYTFSNNGFSWVRQAPGQGLEWLGWISGYNGNTNYAQKFQGRVTMTTDTSTSTAYMELRTLRSDDTAVYYCARDQDYSNFHWLDPWGQGTLVTVAS
VL: DIQMTQSPSSVSASVGDRVIITCRASQGLSSWLAWYQQKPGTAPKLLIHSASSLQTGVPSRFSGSGSGTEFALTINSLQPEDFGTYYCQQANSFPLTFGGGTRVEIK
[1]
  T1/2: 1.92 h
[2]
  Kd: 0.114 nM
  T1/2: 2.12 h
[3]
  Kd: 0.346 nM
  T1/2: 2.73 h
Monomeric hAng-2FD [4]
  Kd: 0.424 nM
  T ½: 1.55 h
[5]
  Kd: 0.0335 nM
  T ½: 7.5 h
[6]
  Kd: 0.093 nM
  T ½: 5.05 h
[7]
  Kd: 0.0172 nM
  T1/2: 7.37 h
[8]
  Kd: 0.116 nM
  T1/2: 0.383 h
[9]
  Kd: 0.385 nM
  T1/2: 0.55 h
[10]
  Kd: 0.244 nM
  T1/2: 0.4 h
Monomeric hAng-2FD [11]
  Kd: 1.02 nM
  T1/2: 0.702 h
[12]
  Kd: 0.0308 nM
  T1/2: 13.9 h
Monomeric hAng-2FD [13]
  Kd: 1.42 nM
  T ½: 0.35 h
[14]
  Kd: 0.347 nM
  T ½: 0.8 h
[15]
  Kd: 0.0312 nM
  T ½: 3.7 h
[16]
  Kd: 0.105 nM
  T1/2: 0.3 h
[17]
  Kd: 0.215 nM
  T1/2: 0.433 h
[18]
  Kd: 0.32 nM
  T1/2: 0.183 h

B2: H1H706P (antibody, human IgG1, V domains shown)
VH: QVQLVESGGGVVQPGRSLRLSCAASGFTFSSYGMHWVRQAPDKGLEWVAVKWDDGSNKYYADSVKGRFTISRDNSKNTLYLQMNSLRAEDTAVYYCAREGPYDFYSGYGAFDIWGQGTMVTVSS
VL: DIQMTQSPSSLSASVGDRVTITCRASQGISNYLAWFQQKPGKAPKSLIYAASSLQSGVPSKFSGSGSGTDFTLTISSLQPEDFATYYCQQYNSYPRTFGQGTKVEIK
notes: Human IgG1
hAng-1-WT [19]
  Percent of Negative Control Binding: 83%
Biotin-hBA2
  IC50: 0.008 nM
hAng-1-WT [20]
  RU (average): 140 RU
Mouse Ang-2FD-hFc
  Percent Blocking of Ang-2FD Binding to Tie-2: 95.9%
Human Ang-2FD-hFc
  Percent Blocking of Ang-2FD Binding to Tie-2: 97.1%
Monkey Ang-2FD-hFc
  Percent Blocking of Ang-2FD Binding to Tie-2: 99.8%
